T1: DUE-B (Homo sapiens, UniProt Q8TEA8 SEQ:1-209)
T1 sequence: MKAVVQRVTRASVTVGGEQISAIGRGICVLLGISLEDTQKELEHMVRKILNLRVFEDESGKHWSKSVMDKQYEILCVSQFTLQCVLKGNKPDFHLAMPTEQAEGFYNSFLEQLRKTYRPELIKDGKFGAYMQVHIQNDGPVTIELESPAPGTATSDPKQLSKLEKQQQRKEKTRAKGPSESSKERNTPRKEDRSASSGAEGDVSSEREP

B1: DUE 30-mer probe (dsDNA)
DNA 1: GGAATATACATTATATATTAAATATAGATC
DNA 2: GATCTATATTTAATATATAATGTATATTCC
B2: c-myc DUE/ARS 123 bp probe (dsDNA)
DNA 1: GAAGGAATTCATGAGAAGAATGTTTTTTGTTTTTCATGCCGTGGAATAACACAAAATAAAAAATCCCGAGGGAATATACATTATATATTAAATATAGATCATTTCAGGGAGCTCGAGAAACAA
DNA 2: TTGTTTCTCGAGCTCCCTGAAATGATCTATATTTAATATATAATGTATATTCCCTCGGGATTTTTTATTTTGTGTTATTCCACGGCATGAAAAACAAAAAACATTCTTCTCATGAATTCCTTC

Assays:
[1] = molecular target: T1, DUE-B; assay: FP; saturable polarization; 2 nM oligo; 100 mM Tris pH 7.5 (printed mN), 800 mM NaCl, 10 mM EDTA; reversed by poly dI-dC; 16-epiestriol (E2850) stimulates; details: tags: N-terminal 6His and V5, baculovirus expressed; label: FITC at 3' end of both strands via C6 spacer
Method: A mastermix is prepared consisting of 1× reaction buffer, 2 nM labeled oligo and 0.125 or 0.250 ug DUE-B per 100 ul of mastermix. Compounds (in this case steroids) are added to the bottom of a 96 well plate. 100 ul of mastermix is added to each well and allowed to equilibrate for 30 sec. Fluorescence polarization is then measured.
In FIG. 23A, the effect of increasing concentrations of DUE-B on the polarization of dsDNA was assessed. As expected, polarization of the dsDNA becomes saturated as the DUE-B protein concentration increases. Note that at 0.125 and 0.250 μg of DUE-B a reasonable shift in polarization of dsDNA is seen. Using these set conditions (0.250 ug DUE-B), the effect of adding a non-specific DNA inhibitor (pdldC) to the reaction (FIG. 23B) was tested. […] It is observed that the polarization was stable for at least 2 hours, making this assay very feasible for high throughput screening.

[2] = molecular target: T1, DUE-B; assay: EMSA; strongly retarded complex without poly dI-dC; 30 C 30 min; reduced by poly dI-dC; details: tags: 6His, baculovirus/Sf9 expressed, Ni-NTA; label: 32P (alpha-32P-dCTP by PCR)
Method: An electrophoretic mobility shift assay (EMSA) was used to test whether the baculovirus expressed DUE-B protein could bind to DNA in vitro. When added to a radiolabeled c-myc DUE probe in the absence of nonspecific competitor (poly dI-dC), DUE-B produced a strongly retarded protein-DNA complex band (FIG. 14, lanes 1-4). […] When HeLa cell cytoplasmic extract was added to the c-myc DUE probe in the absence of poly dI-dC an intense band was observed that was not affected by the addition of DUE-B (lanes 13-16). With the addition of the nonspecific competitor poly dI-dC, however, a novel band appeared that was dependent on the addition of DUE-B (asterisks, lanes 17-24). […] Similar to the results obtained when cytosol was added to the c-myc DUE probe, when nuclear extract from HeLa cells was added to the c-myc DUE probe in the absence of poly dI-dC an intense band was observed that was not affected by the addition of DUE-B (lanes 25-28). In the presence of competitor for nonspecific binding, however, a novel band appeared that was dependent on the addition of DUE-B (brackets, lanes 32 and 36). […] In FIG. 14, a 123 bp fragment of the c-myc replication origin containing the DUE/ARS region was labeled with alpha-³²P-dCTP by PCR. 25 fmol were mixed with recombinant DUE-B purified by Ni-NTA affinity chromatography from SF9 insect cells. […]

Binder | binding result [1] | binding result [2]
B1 | binds | 
B2 |  | binds
